The values that follow come from article PMC6628001, “The Biochemical Activities of the Saccharomyces cerevisiae Pif1 Helicase Are Regulated by Its N-Terminal Domain”.

Data set [1] deals with T1, Pif1 (full-length recombinant) (Saccharomyces cerevisiae, UniProt P07271 1-859).
T1 sequence: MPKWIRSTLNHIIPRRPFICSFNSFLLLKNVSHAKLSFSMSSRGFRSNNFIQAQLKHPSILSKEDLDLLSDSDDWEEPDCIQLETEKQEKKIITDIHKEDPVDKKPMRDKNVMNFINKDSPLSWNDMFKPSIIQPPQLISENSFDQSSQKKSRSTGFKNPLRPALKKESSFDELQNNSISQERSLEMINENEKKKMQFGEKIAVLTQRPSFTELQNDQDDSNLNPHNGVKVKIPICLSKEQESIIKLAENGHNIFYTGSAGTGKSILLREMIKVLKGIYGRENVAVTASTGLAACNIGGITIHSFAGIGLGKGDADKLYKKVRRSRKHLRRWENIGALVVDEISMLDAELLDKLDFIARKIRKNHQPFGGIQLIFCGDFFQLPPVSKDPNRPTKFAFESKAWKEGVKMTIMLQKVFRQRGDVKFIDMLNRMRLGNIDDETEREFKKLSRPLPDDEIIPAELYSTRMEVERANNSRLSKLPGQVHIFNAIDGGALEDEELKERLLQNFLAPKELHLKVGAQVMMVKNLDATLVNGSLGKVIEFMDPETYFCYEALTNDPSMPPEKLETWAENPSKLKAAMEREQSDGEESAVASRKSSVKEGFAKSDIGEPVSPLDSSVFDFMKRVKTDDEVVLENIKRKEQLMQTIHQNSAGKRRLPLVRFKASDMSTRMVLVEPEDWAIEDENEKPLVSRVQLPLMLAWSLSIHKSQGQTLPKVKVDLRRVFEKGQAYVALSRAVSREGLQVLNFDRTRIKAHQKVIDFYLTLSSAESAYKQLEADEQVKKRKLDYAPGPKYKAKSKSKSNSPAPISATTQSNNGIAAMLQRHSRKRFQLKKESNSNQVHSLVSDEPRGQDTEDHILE
Put plainly: EMSA; 7.5 mM Mg2+; 25 mM HEPES pH 8.0, 5% glycerol, 50 mM NaOAc, 150 μM NaCl (so in the source), 7.5 mM MgCl2, 0.01% Tween-20; 0.2 nM DNA; 30 °C 30 min; 4 mM ATP when present (not stated per row). The following applies: protein: recombinant, tags: SUMO tag in expression construct (pSUMO-Pif1).

Another data set addresses T2, Pif1ΔN (Saccharomyces cerevisiae, UniProt P07271 234-859, del1-233).
T2 sequence: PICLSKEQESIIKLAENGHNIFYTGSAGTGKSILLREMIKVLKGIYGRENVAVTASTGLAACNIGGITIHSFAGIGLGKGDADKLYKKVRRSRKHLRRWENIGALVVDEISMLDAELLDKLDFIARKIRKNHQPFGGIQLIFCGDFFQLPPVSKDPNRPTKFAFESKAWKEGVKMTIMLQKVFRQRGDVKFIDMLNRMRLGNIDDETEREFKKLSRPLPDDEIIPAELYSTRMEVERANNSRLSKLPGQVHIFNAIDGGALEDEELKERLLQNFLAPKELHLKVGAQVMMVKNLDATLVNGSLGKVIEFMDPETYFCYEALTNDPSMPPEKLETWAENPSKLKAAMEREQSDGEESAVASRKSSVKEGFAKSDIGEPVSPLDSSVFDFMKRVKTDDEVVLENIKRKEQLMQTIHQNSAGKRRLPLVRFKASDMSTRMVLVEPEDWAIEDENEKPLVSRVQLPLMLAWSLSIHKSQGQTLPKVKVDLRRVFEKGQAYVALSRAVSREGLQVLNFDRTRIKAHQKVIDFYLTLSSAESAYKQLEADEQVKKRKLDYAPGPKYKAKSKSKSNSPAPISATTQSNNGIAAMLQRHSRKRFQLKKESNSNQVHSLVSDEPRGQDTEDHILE
The description is as above. The following applies: protein: recombinant, tags: SUMO tag in expression construct (pSUMO-Pif1ΔN).

[2] abbreviates: label: 32P on helicase loading strand (5' end, T4 PNK; MB1572 implied), fork 1:26-45 2:1-20, unpaired 5' DNA arm 25 nt and 3' RNA arm 25 nt.

B1: RNA-DNA hybrid fork (MB1572/MB1571) (DNA:RNA)
DNA: GAACGCTATGTGAGTGACACTGGGTCACCACACCCACACCACACC
RNA: GGUGUGGUGUGGGUGUGGUGUGGGUCACAGUGAGUGUAUCGCAAG
modifications: MB1571 is all RNA; MB1572 is DNA
On to B1, for which the Kd (commonly a measure of binding affinity in units of concentration) in data set [1] (setting [2]) worked out at 0.67 ± 0.085 nM; with Pif1ΔN (setting [2]) it was 0.135 ± 0.013 nM.

For the molecule CGCCATGCTGATCCGTGTGGTGTGTGTGGG (ssDNA) [Tel30], the Kd with Pif1ΔN (label: 32P (5' end, T4 PNK)) came out at 0.41 ± 0.031 nM.

For the molecule TGTGGTGTGTGTGGG (ssDNA) [Tel15], the Kd was 112 ± 12.7 nM in data set [1] (label: 32P (5' end, T4 PNK)) and 0.39 ± 0.058 nM with Pif1ΔN (label: 32P (5' end, T4 PNK)).
